# From paper PMC5431456, “Structure aided design of a Neu5Gc specific lectin” (Scientific Reports, 2017)
# B1: Subtilase cytotoxin B subunit (SubB), wild type (natural protein)
# chain: EWTGDARDGMFSGVVITQFHTGQIDNKPYFCIEGKQSAGSSISACSMKNSSVWGASFSTLYNQALYFYTTGQPVRIYYKPGVWTYPPFVKALTSNALVGLSTCTTSTECFGPDRKKNS
# notes: also called Wild type SubB; wild-type SubB; source: E. coli BL21(DE3), pET-23(+), purified (Ni-NTA)
# B2: SubB S106A/T107A (natural protein)
# chain: EWTGDARDGMFSGVVITQFHTGQIDNKPYFCIEGKQSAGSSISACSMKNSSVWGASFSTLYNQALYFYTTGQPVRIYYKPGVWTYPPFVKALTSNALVGLSTCTTAAECFGPDRKKNS
# notes: source: E. coli BL21(DE3), pET-23(+), purified (Ni-NTA)
# B3: bovine α1-acid glycoprotein (AGP) (natural protein)
# chain: QSPECANLMTVAPITNATMDLLSGKWFYIGSAFRNPEYNKSARAIQAAFFYLEPRHAEDKLITREYQTIEDKCVYNCSFIKIYRQNGTLSKVESDREHFVDLLLSKHFRTFMLAASWNGTKNVGVSFYADKPEVTQEQKKEFLDVIKCIGIQESEIIYTDEKKDACGPLEKQHEEERKKETEAS
# modifications: glycans that contain both Neu5Ac and Neu5Gc
# notes: also called Bovine α1-AGP; bovine AGP
# B4: SubB ΔS106/ΔT107/E108D (natural protein)
# chain: EWTGDARDGMFSGVVITQFHTGQIDNKPYFCIEGKQSAGSSISACSMKNSSVWGASFSTLYNQALYFYTTGQPVRIYYKPGVWTYPPFVKALTSNALVGLSTCTTDCFGPDRKKNS
# notes: as for B2
# Assays:
# Conditions in all cases: both partners purified
# [1] = target: B3; assay: SPR; Biacore T100; SubB or SubB mutant immobilised on a series S CM5 chip (flow cell 1 blank); AGP flowed over, 0.01-100 µM in range finding; single cycle kinetics
# [2] = target: B3; assay: SPR
# SubB ΔS106/ΔT107 = target: T1, SubB ΔS106/ΔT107 (Escherichia coli, UniProt Q6EZC3 24-141, ΔS106/ΔT107); assay: SPR
# T1 construct: source: E. coli BL21(DE3), pET-23(+), purified (Ni-NTA)
Binder,Kd [2] [nM],also measured
B1,–,Kd [1]: 156 ± 22 nM
B2,164 ± 10,–
B3,–,Kd (SubB ΔS106/ΔT107): 115 ± 37 nM
B4,32.5 ± 2.6,–
